# Laboratory results from patent US20100313308.
# Substitutions are numbered along the chain they refer to.
# B1: GST-UBP15 (protein)
# chain: MLEPRGADIPILFLVLVVLPVVAYILLGKWSNISEKRVRANLLAQMAAEEALRAETVVNADRGVRFESVATENRAQRTRTKTVSAGGGAVRAEFDAGARETVAEQRSDSVTATCGVTVVAPVNNNELHVCARCFGPAKTRCSRCKSVRYCSGKCQIIHWRVAHKDECVPVESCSSSSERVSFEKDSVLYDHGMDSTMYSNNTTQAAKGKTSKSSVDFASLGISQNDITPQINTQGRKSVGKQHSSKANRESCRRDSATVFDSSDEAASAGGDNKTSHIKHKSRGNSYAAETNPRRHSVDSSAVQMNGQSFVSGMQESHKHENNLGVRSSFGCPNTQYPSNGTRTATLPRTGINKSGEQSCTETSKKGQVAAVSKTVRSKDTGISEESNGISSTMGIMKMMGLRNSTKHDDRYKNLKMLFPYEEFLKFFQCEVFDLSPRGLVNCGNSCYANAVLQSLTCTKPLVAYLLRRSHSRSCSGKDWCLMCELEQHVMMLRESGGPLSASRILSHMRSINCQIGDGSQEDAHEFLRLLVASMQSICLERLGGETKVDPRLQETTLVQHMFGGRLRSKVKCLRCDHESERYENIMDLTLEIYGWVESLQDALTQFTRPEDLDGENMYRCSRCAGYVRARKELSIHEAPNILTIVLKRFQEGRYGKINKCISFPEMLDMIPFMTRTGDVPPLYMLYAVIVHLDTLNASFSGHYISYVKDLRGNWYRIDDSEIHPVPMTQVMSEGAYMLFYMRSYPRPQRGEHNGKAPVHHSQPRNEMKEQRKPVNRFKPRADHKNTESSSSEWSLFTSSDEASFTTESTRDSFSTIDYTDVCHVVDSSSPFAIFNNVYHNVEPSPHNTVACRMFSGTKPETRYFVEQETNHNNTVVLDATPSLYPIPAPYPPHDYYDQSMYVNYETNPEFNNGQDQDRTYSYW
# B2: GST-UBP15C447S (protein)
# chain: B1 chain with C447S
# B3: GST-UBP15C447A (protein)
# chain: B1 chain with C447A
# Experiments:
# [1] = target: his-tagged ubiquitin-extension protein UBQ1
# [2] = target: multiubiquitin chain linked by iso-peptide
# [3] = target: his-tagged polyubiquitin UBQ10 (hexameric polyubiquitin), Q8H159
# Chain of his-tagged polyubiquitin UBQ10 (hexameric polyubiquitin), Q8H159 (Q8H159 whole entry, looked up): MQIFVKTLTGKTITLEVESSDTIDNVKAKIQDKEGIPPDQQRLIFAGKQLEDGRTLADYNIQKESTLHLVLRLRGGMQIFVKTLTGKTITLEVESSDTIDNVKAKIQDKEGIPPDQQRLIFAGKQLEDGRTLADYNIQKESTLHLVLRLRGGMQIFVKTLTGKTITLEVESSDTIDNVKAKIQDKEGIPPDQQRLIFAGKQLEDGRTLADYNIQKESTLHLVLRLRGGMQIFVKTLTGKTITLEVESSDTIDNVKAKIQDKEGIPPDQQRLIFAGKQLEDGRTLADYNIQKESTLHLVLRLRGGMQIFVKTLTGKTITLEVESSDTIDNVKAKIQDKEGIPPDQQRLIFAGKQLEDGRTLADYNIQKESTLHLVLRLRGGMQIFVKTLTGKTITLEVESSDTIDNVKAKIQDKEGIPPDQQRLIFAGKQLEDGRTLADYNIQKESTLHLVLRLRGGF
Protein,"in vitro DUB activity assay (co-expression in E. coli, immunoblot with anti-ubiquitin antibody) [1]",in vitro DUB activity assay (data not shown) [2],"in vitro DUB activity assay (co-expression in E. coli, immunoblot with anti-ubiquitin antibody) [3]"
B1,UBP15 can cleave substrate UBQ1 (ubiquitin-extension protein),"UBP15 can only cleave a-linked peptide (polyubiquitin and ubiquitin-extension gene) (FIG. 5A), not c-linked isopeptide (multiubiquitin chain linked by iso-peptide) (data not shown)",UBP15 can cleave substrate UBQ10 (hexameric polyubiquitin)
B2,Cysteine^447 is essential for this DUB activity,–,Cysteine^447 is essential for this DUB activity
B3,Cysteine^447 is essential for this DUB activity,–,Cysteine^447 is essential for this DUB activity
